Molecular target: ΔCTT, a variant of FtsZ that lacks the CTT (B. subtilis)

GTPase activity (coupled assay, 5 μM protein, 1 mM GTP), relative to WT FtsZ: 3 fold
Substance: ΔCTT, a variant of FtsZ that lacks the CTT (domain or fragment)
